Our source for the pKa values is publication PMC3294125.

Test in all cases: kinetics
For series [1], the target named is Cys139 (UniProt position 139, AFPRMCNLSYW). Conditions: Continuous catalytic turnover; cited from earlier work.
Series [2] deals with Asp132 (UniProt position 132, HIGAPDMAFPR). The settings on record: Continuous catalytic turnover; cited from earlier work.
Series [3] addresses Asp139 (UniProt position 139, AFPRMDNLSYW). The settings on record: Continuous catalytic turnover; cited from earlier work.
Series [4] has as its target Asp26 (UniProt position 26, FMSTNDKDIGV). The settings on record: Continuous catalytic turnover.

For “Cytochrome c oxidase (aa3-type), subunit I N139C-D132N, subunit III-depleted (Rhodobacter sphaeroides; N139C;D132N)”, the pKa (commonly the pH at which an ionisable group is half protonated) in series [1] is recorded as 8.0 (7.9–8.1). As for “Cytochrome c oxidase (aa3-type), subunit I, in subunit III-depleted enzyme [WT III (−)] (Rhodobacter sphaeroides)”, the pKa in series [2] was 7.0–7.3. For “Cytochrome c oxidase (aa3-type), subunit I N139D-D132N, subunit III-depleted (Rhodobacter sphaeroides; N139D;D132N)”, the pKa in series [3] is 7.7 (7.5–7.9).

“Cytochrome c oxidase (aa3-type), subunit I H26D-D132A, subunit III-depleted (Rhodobacter sphaeroides; H26D;D132A)”: the pKa in series [4] is 7.0 (6.9–7.1).
